# Source: the nanobody polyreactivity screen of Harvey et al. (2022)
# Test: yeast display, Sf9 membrane polyspecificity reagent, FACS + sequencing; frameworks hold sequencing errors
# In short: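 After 36–48 hours of galactose induction, yeast (Saccharomyces cerevisiae BJ5465) displaying a synthetic nanobody library were stained at 4 °C for 1 hour with 10% biotinylated, detergent-solubilized Sf9 membrane reagent. Streptavidin microbeads enriched the stained cells before FACS sorting into low and high (top ~1%) gates on anti-HA and streptavidin fluorescence. Each clone's polyreactivity label reflects its gate of origin.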
row,Sequence,polyreactivity (PSR sort gate)
1,QVQLVESGGGLVQAGGSLRLSCAASGITFNVNAMGWYRQAPGKERELVARITTSGGSTSYADSVKGRFTISRDNAKNTVYLQMNSLKPEYTAVYYCAADRARYYSEYDYWGQGTQVTVSS,low polyreactivity
2,QVQLVESGGGIVQAGGSLRLSCAASGRTFLYNAMGWYRQAPGKERELVAAISKSGGSTYYADSVKGRFTISRDNAKNTVYLLMNSLKPEESAVYYCAKVGGYRGRPSFGDWGQGTQVTVSS,high polyreactivity
3,QVQLQESGGGLEQAGGDLRLSCAASGNIFRDYIMGWYRQAPGKEREFVAGIDRGANTNYADSVKGRFTISRDNAKNTVYLQMNSLKPEDTAVYYCAVHTAIVADFIYWGQGTQVTVSS,low polyreactivity
4,QVQLVESGGGLVQAGGSLRLSCAASASIVFTYVMGCYSQAPWKERELVSAITSDDNTNYADSVKGRFTISRVNAKNTVYLQMNSLKPEDTAVYYCNADTTLYPYYEYGYYDYDYWGHGTQVTVSS,low polyreactivity
5,QVQLGESGGGLVQAGGSLRLSCAASGSTFNRYAMGWYIQAPGKERELVAAITVRGNTYYADSVKGRFTISRDNAKNTVDVQMNSVKPEDTAVYYCNAVSASPSYVYRPYFKRGYWGQGTQGTVSS,high polyreactivity
6,QVQLVESGGGLVQAGGSLRLSCAASGSTFINYAMGWYRQAPGKERELVAAYADSVKGRFTISRDNAKNTVYLQMNSLKPEDTAVYYCAARYVYPHQWTPYIRPYDYWGQGTQVTVSS,low polyreactivity
7,QVHLVESGGGLVLAPASLRLSSPASGHNQGIYAMGWYRQAPGKEREFVAAISRGGGSTYYADSVKGRFTISRDNAKNTVYLQMNSLNPEDTAVYYCNAVRDRYGVFPYYYWGQGTQVTVSS,high polyreactivity
8,QVQLVESGGVIFQAGGILRLICAASGRIFARNAMGWYRQAPGKERELVAAISRSGGPTYYADSVKGRFTISRDNAKNSVYLQMNSLKTEDTGVYYCAADHYPWWAWEFDYWGQGTQVTVSS,low polyreactivity
9,QVQLVESGGGLVQAGGSLRLSCAASGSIFVNNAMGWYRQAPGKERELVAAISSRSSRTFYADSVKGRFTISRDNAKNTVYLQMNSLKPEDTAVYYCAKPGYLRPSRYDYWGQGTQVTVSS,high polyreactivity
10,QVQLVESGGGLLQAGGSLRLSCAASGSTFKGYAMGWYRQAPGKERELVAAISWSAGSTYYADSVKGRFTISRDNAKNTVYLQMNSLKPEDTAVYYCAKASVALRYYSYSLGRDYWGQGTQVTVSS,low polyreactivity
11,QVQLVESGAGLVQAGGSLRLSCAASGSIFTENSMGWYRQAPGKEREMVAAIRWDDGHTYYADSVKGRFTISRDNAKNTVYLQMNSLKPEDTAVYYCNADKWSSTDDWLYDYWGQGTQVTVSS,low polyreactivity
12,QLKLEESGGGLVQAGGSLRLSCAASGFIFSYNAMGWYRQAPGKERELDAAISSIGSGTYYADSVKGRFTISRDNAKYTVYLQMNSLKPEDTAVYYCAKYLRPRIGSRYYYWGQGTQVTVSS,high polyreactivity
13,QVQLVESGGRLVQAGGSLRLSCAASGINFGYYAMGLYRQAPGKEMELVAAINKSGTSTYYADSVKGRFTISRDNAKNTVYLQMNSLKPEDTAVYYCAVDYARDKGYPYGYWGQGTQVTVSS,low polyreactivity
14,QVQLVESGGGLVQAGGSLRLSCAASGSTFEIYAMGWYRQAPGKERELVAAIDFSGGSTYYADSVKGRFTISRDNAKKTLYLQMNSLKPEDTAVYYCAVDSASDTIYDYWGQGTQVTVSS,low polyreactivity
15,QVQLVESGGGLVQAGGSLRLSCAASGRTFSVYAMGWYRQATGKEREFVAAISFSGGRTYYADSVKGRFTISRDNAKNTVYLQINSLKPEDTAVYYCAKRGSYYNPMGYWGQGTQVTVSS,high polyreactivity
16,QVQLVESGGGLVPARGSLRLSCAASGNIFFVYDMGWYRQAPGKERELVAAISWSGGSTYADSVKGRFTISRDNGKNNVYLQMNSLKPEDTGVYYCAADVAYVEYDYWGQGSQVTVSS,low polyreactivity
17,QVQLVESGRGLVQAGGSLRLSCAASGSIFYNNAMGWYRQAPGKERELVAAIRSTGTRTYYADSVKGRFTISRDNAKNTVYLQMNSLKPEDTAVYYCAVGDYGLWSYDCWGQGTQVTVSS,low polyreactivity
18,QVQLVESGGGLVQAGGSLRLSCAASGSIFRPYTMGWYRQAPGKERELVAAITGSGGSTYYADSVKGRFTISRDNAKNTVYLQMNSLKPEDTAVYYCNAGWRVWGYSGSYYWFNYWGQGTQVTVSS,high polyreactivity
19,QVQLVESGGGLVQAGGSLRLSCAASGRIFGPYAMGWYRQAPGKERELVASISYSGGSTYYADSVKGRFTISRDNAKNTVYLQMNSLKPEDTAVYYCAKGGYWRGYNYYYWGQGTQVTVSS,low polyreactivity
20,QVQLVESGGGLVQAGGSLRLSCAASGNIFGPNAMGWYRQAPGKESELVAAISISGSTYYADSVKGRFTISRDNAKNTVYLQRNSLNPEDTAVYYCAADYDSDYSWKYNYWGQGTQVTVSS,low polyreactivity
21,QVQLVESGGGLVQAGGILRLSCAASGRIFRPNAMGWYRQAPGKERELVAAISSGGSTYYADSVKGRFTLSRDNAKNSVYLQMNSLKPEDSAVYYCNAKASFWSPYDYWGQGTQVTVSS,high polyreactivity
22,QVQLVESGGGLVQAGGSLRLSCAASGRTFGYNAMGWYSQAPGKERELVAAISYSGGRTYYADSVKGRFTISRDNAKNTVYLQMNSLKPEDTAVYYCAAKNPYKYDYWGQGTQVTVSS,high polyreactivity
23,QVQLVESGGGLVQAGGSLRLSCAASGIIFYGNAMGWYRQAPGKERELVAAISWSGSSTYYADSVKGRFTISRDNAKNTVYLQMNSLKPEDTAVYYCNKATSSVRYLKYYYWGQGTQVTVSS,high polyreactivity
24,QVQLVESGGGLVQAGGSLRLSCAASGRTFKYNAMGWYRQAPGKERELVAAISSTGSTNYADSVKGRFTISRDNAKNTVYLQMNSLKPEDTAVYYCAASYYFVQWGWYYYWGQGTQVTVSS,low polyreactivity
25,QVQLGESGGGLVQAGGSLRLSCAASGSTFPFNAMGWYRQAPGKERELVAAITLRGGRTYYADSVKGRFTISRDNAKNTVYLQMNSMKPEDTAVYYCAARHNPYRYYHWGQGTQVTVSS,high polyreactivity
26,QVQLVESGGGLVQAGGSLRLSCAASGRTFNPYVMGWYRQAPGKERELVAVITSSGDSTYYADSVKGRFTISRDNAKNTVYLQMNSLKPEDTAVYYCNADYLYYDYDYWGQGTQVTVSS,high polyreactivity
27,QVQLVESGGGLVQAGGSLRLSCAASGRTLYFNAMGWYRQAPGKERELVADISIGGSTYYADSVKGRFTISRDNAKNTVYLQMNSLKPEDTAVYYCAANAHYYVSYAWYVDVDYWGQGTQVTVSS,high polyreactivity
28,QFQLVESGGGLVQAGGSLRLSCAASGSTFRGYTMGWYRQAPGKERELVAAIRSTTGRTYYADSVKGRFTISRENAKNTVYLQMNSLKPEDTAVYYCNKAYPREYYYWGQGTQVTVSS,high polyreactivity
29,QVQLVESGGALVQAGGSLRLSCAASGRIIYKNAMRWYRQAPGKETELVATITYSDGTTYYADSVKGRFTISRDNAKNTVYLQMNSLKPEDTAVYYCAAQTDSVESDYWGQGTQVTVSS,low polyreactivity
30,QVQLVESGGGLVQAGGSLRLSSASSGFTFSYYAMGWSRPAPGKERELVAAITSDGGRTYYADSVKGRFTISRDNAKNTVYLQMNSLKPEDTAVYYCAARTRYRGIKGYNYWGQGTQVTVSS,high polyreactivity
